Measured values published in patent US20230416329A1, “A PEPTIDE WITH DISULFIDE BONDS AND INHIBITORY ACTIVITY AGAINST SERINE PROTEASES, DERIVED HYBRID PEPTIDES THEREOF, AND USES THEREOF” (INSTITUTE OF MATERIA MEDICA , CHINESE ACADEMY OF MEDICAL …, priority 2020, published 2023).

Key:
[1] = molecular target: bovine trypsin (bovine), P00760; test: cell-based or functional assay
PCSK9 protein = PCSK9 protein (UniProt Q8NBP7); test: PCSK9-LDLR in vitro binding assay kit, OD450/540; peptide 50 µM, PCSK9 75 ng/mL; inhibition of PCSK9 binding to LDLR

Chain of bovine trypsin (bovine), P00760 (P00760 24-246): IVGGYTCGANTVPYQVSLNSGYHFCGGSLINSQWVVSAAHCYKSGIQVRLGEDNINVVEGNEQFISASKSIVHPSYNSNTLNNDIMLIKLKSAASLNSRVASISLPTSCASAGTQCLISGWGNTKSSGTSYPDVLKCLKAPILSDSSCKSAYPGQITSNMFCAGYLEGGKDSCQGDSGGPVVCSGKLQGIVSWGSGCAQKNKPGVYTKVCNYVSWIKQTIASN

B1: BT1 (peptide)
peptide: GRCTKSIPPICFPD
modifications: not checked
B1 was tested, and the residual trypsin activity at 0.0000098 µM BT1 [1] was 102%, the residual trypsin activity at 0.000098 µM BT1 [1] was 102% and the residual trypsin activity at 0.00098 µM BT1 [1] was 101%. For the same binder, the residual trypsin activity at 0.02439 µM BT1 [1] was 69.6%, the residual trypsin activity at 0.0488 µM BT1 [1] was 24.1% and the residual trypsin activity at 0.098 µM BT1 [1] was 3.3%. The residual trypsin activity at 0.98 µM BT1 [1] was 0% and the residual trypsin activity at 9.76 µM BT1 [1] was 0%.

B2: PCSK9_13 (peptide)
peptide: GTNEALDNNCGRATKSIPPICFTVFTS
Binder B2 has an Inhibitory rate (%) (PCSK9 protein) of 15.8%.
